Reference: paper doi:10.1101/2022.10.05.510992

Target: Sodium-bicarbonate co-transporter NBCn1 (SLC4A7), native in human cells (human (endogenous in MCF-7 and HEK293T)) (UniProt Q9Y6M7)
Assay: proximity ligation

Sequence of UniProt Q9Y6M7 (Q9Y6M7 whole entry): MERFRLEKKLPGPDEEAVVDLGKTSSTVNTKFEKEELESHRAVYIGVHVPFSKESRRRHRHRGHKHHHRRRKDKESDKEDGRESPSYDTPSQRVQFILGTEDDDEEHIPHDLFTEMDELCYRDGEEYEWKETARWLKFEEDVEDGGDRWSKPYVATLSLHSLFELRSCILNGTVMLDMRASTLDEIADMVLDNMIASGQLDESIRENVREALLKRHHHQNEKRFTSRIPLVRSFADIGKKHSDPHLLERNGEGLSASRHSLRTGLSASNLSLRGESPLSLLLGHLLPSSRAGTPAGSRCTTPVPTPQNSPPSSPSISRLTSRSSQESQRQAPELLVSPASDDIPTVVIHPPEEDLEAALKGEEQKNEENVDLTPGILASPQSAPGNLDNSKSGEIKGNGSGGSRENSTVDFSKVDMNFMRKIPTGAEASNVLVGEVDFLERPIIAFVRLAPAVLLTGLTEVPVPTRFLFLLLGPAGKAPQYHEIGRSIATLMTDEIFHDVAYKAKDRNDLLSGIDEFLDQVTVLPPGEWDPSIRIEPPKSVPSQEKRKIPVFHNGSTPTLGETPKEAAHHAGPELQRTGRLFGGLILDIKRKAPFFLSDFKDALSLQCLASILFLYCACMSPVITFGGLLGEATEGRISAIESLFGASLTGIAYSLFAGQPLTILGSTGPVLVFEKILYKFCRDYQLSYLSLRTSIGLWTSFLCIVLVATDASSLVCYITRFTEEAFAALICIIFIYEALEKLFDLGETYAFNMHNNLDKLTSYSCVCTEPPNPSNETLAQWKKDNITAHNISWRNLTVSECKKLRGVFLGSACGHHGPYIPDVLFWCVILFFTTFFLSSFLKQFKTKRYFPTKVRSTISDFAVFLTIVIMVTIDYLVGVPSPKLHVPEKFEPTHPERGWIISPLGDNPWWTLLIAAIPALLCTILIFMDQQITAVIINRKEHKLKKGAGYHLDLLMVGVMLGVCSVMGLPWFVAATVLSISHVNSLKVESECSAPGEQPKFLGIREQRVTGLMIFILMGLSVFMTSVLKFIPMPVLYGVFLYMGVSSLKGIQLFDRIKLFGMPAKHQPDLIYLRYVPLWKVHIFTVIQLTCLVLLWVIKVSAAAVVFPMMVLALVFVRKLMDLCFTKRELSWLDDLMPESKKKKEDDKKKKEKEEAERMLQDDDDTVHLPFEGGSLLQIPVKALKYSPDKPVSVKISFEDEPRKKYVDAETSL

## E-cadherin, native in MCF-7 cells (natural protein)
  PLA signal, fold over the NBCn1-NHE1 control: 4 fold
  PLA signal, fold over the negative control (only NBCn1 antibody): 11 fold
